In this test the target is T1, IRAK (UniProt P51617 1-712, limits assumed).
T1 construct: Overexpressed in HEK293 cells and detected by western blotting with anti-IRAK; No tag is stated; also called IL-1 receptor associated Kinase; IRAK1
Briefly: co-immunoprecipitation from transfected HEK293 cells: anti-HA IP, anti-IRAK western blot. On the procedure:
HEK 293 cells were transfected with a 5 x NF-KB reporter gene plasmid and co-transfected with plasmids encoding MAL-1 of SEQ ID NO:2 or MyD88 and increasing concentrations of IRAK. Luciferase reporter gene activity was measured. HEK293 cells were transfected with HA-MAL-1 and IRAK and the resulting overexpressed proteins were immunoprecipitated using an anti-HA antibody to isolate MAL-1 complexes and interactions were detected by western blotting to detect anti-IRAK. IRAK could not be detected in the anti-HA-MAL immunoprecipitates. HEK293 cells were transfected with AU-1-MyD88 and IRAK and the resulting overexpressed proteins were immunoprecipitated using an anti-AU1 antibody to isolate MyD88 complexes and interactions were detected by western blotting for anti-IRAK. IRAK was detected in the anti-Aul-MyD88 immunoprecipitates.

T1 sequence (P51617 whole entry): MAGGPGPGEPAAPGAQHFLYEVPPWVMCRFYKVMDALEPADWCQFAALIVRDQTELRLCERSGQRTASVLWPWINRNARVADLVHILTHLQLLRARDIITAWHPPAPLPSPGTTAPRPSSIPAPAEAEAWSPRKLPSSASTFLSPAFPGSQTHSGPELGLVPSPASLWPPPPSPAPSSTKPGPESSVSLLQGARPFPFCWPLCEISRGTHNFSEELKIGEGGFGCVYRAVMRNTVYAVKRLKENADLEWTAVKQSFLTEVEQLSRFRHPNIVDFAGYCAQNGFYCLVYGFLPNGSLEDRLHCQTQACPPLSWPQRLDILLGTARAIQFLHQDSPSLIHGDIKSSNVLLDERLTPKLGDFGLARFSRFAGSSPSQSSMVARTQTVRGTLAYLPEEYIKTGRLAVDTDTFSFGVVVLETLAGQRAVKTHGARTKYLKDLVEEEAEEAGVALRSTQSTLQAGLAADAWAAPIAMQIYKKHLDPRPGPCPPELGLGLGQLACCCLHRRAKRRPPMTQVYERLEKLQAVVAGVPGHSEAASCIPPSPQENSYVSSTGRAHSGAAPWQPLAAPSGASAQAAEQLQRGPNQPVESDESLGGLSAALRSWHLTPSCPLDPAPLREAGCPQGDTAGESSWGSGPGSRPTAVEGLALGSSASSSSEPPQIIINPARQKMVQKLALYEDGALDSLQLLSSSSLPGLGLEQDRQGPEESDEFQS

B1: full-length labelled MAL-1 (HA-MAL-1) (other, not shown: small tags and cut ends)
chain: MASSTSLPAPGSRPKKPLGKMADWFRQTLLKKPKKRPNSPESTSSDASQPTSQDNPLPPSLSSVTSPSLPPTHASDSGSSRWSKDYDVCVCHSEEDLVAAQDLVSYLEGSTASLRCFLQLRDATPGGAIVSELCQALSSSHCRVLLITPGFLQDPWCKYQMLQALTEAPGAEGCTIPLLSGLSRAAYPPELRFMYYVDGRGPDGGFRQVKEAVMRCKLLQEGEGERDSATVSDLL
notes: Overexpressed in HEK293 cells; also called tagged MAL-1
Regarding B1, the binding result was “no binding”.

The values are drawn from US20020164640A1 (IMMUNEX, published 2002).
